B1: mouse RAG1 (aa 265-1040), catalytically inactive E962Q mutant (enzyme, UniProt P15919 265-1040, looked up)
chain: NCSKIHLSTKLLAVDFPAHFVKSISCQICEHILADPVETSCKHLFCRICILRCLKVMGSYCPSCRYPCFPTDLESPVKSFLNILNSLMVKCPAQDCNEEVSLEKYNHHVSSHKESKETLVHINKGGRPRQHLLSLTRRAQKHRLRELKIQVKEFADKEEGGDVKAVCLTLFLLALRARNEHRQADELEAIMQGRGSGLQPAVCLAIRVNTFLSCSQYHKMYRTVKAITGRQIFQPLHALRNAEKVLLPGYHPFEWQPPLKNVSSRTDVGIIDGLSGLASSVDEYPVDTIAKRFRYDSALVSALMDMEEDILEGMRSQDLDDYLNGPFTVVVKESCDGMGDVSEKHGSGPAVPEKAVRFSFTVMRITIEHGSQNVKVFEEPKPNSELCCKPLCLMLADESDHETLTAILSPLIAEREAMKSSELTLEMGGIPRTFKFIFRGTGYDEKLVREVEGLEASGSVYICTLCDTTRLEASQNLVFHSITRSHAENLQRYEVWRSNPYHESVEELRDRVKGVSAKPFIETVPSIDALHCDIGNAAEFYKIFQLEIGEVYKHPNASKEERKRWQATLDKHLRKRMNLKPIMRMNGNFARKLMTQETVDAVCELIPSEERHEALRELMDLYLKMKPVWRSSCPAKECPESLCQYSFNSQRFAELLSTKFKYRYEGKITNYFHKTLAHVPEIIERDGSIGAWASEGNQSGNKLFRRFRKMNARQSKCYEMEDVLKHHWLYTSKYLQKFMNAHNALKSSGFTMNSKETLGDPLGIEDSLESQDSMEF
B2: mouse RAG1 (aa 265-1040), wild type (enzyme, UniProt P15919 265-1040, looked up)
chain: B1 chain with Q698E
B3: WT core mouse RAG2 (aa 1-359) (domain or fragment, UniProt P21784 1-359, looked up)
chain: MSLQMVTVGHNIALIQPGFSLMNFDGQVFFFGQKGWPKRSCPTGVFHFDIKQNHLKLKPAIFSKDSCYLPPLRYPATCSYKGSIDSDKHQYIIHGGKTPNNELSDKIYIMSVACKNNKKVTFRCTEKDLVGDVPEPRYGHSIDVVYSRGKSMGVLFGGRSYMPSTQRTTEKWNSVADCLPHVFLIDFEFGCATSYILPELQDGLSFHVSIARNDTVYILGGHSLASNIRPANLYRIRVDLPLGTPAVNCTVLPGGISVSSAILTQTNNDEFVIVGGYQLENQKRMVCSLVSLGDNTIEISEMETPDWTSDIKHSKIWFGSNMGNGTIFLGIPGDNKQAMSEAFYFYTLRCSEEDLSEDQ
B4: WT core mouse RAG1 (aa 384-1008), P15919 384-1008 (enzyme)
chain: VHINKGGRPRQHLLSLTRRAQKHRLRELKIQVKEFADKEEGGDVKAVCLTLFLLALRARNEHRQADELEAIMQGRGSGLQPAVCLAIRVNTFLSCSQYHKMYRTVKAITGRQIFQPLHALRNAEKVLLPGYHPFEWQPPLKNVSSRTDVGIIDGLSGLASSVDEYPVDTIAKRFRYDSALVSALMDMEEDILEGMRSQDLDDYLNGPFTVVVKESCDGMGDVSEKHGSGPAVPEKAVRFSFTVMRITIEHGSQNVKVFEEPKPNSELCCKPLCLMLADESDHETLTAILSPLIAEREAMKSSELTLEMGGIPRTFKFIFRGTGYDEKLVREVEGLEASGSVYICTLCDTTRLEASQNLVFHSITRSHAENLQRYEVWRSNPYHESVEELRDRVKGVSAKPFIETVPSIDALHCDIGNAAEFYKIFQLEIGEVYKHPNASKEERKRWQATLDKHLRKRMNLKPIMRMNGNFARKLMTQETVDAVCELIPSEERHEALRELMDLYLKMKPVWRSSCPAKECPESLCQYSFNSQRFAELLSTKFKYRYEGKITNYFHKTLAHVPEIIERDGSIGAWASEGNESGNKLFRRFRKMNARQSKCYEMEDVLKHHWLYTSKYLQKFMNAHNA
B5: mouse RAG2 (aa 1-520), degradation resistant T490A mutant (natural protein, UniProt P21784 1-520, looked up)
chain: MSLQMVTVGHNIALIQPGFSLMNFDGQVFFFGQKGWPKRSCPTGVFHFDIKQNHLKLKPAIFSKDSCYLPPLRYPATCSYKGSIDSDKHQYIIHGGKTPNNELSDKIYIMSVACKNNKKVTFRCTEKDLVGDVPEPRYGHSIDVVYSRGKSMGVLFGGRSYMPSTQRTTEKWNSVADCLPHVFLIDFEFGCATSYILPELQDGLSFHVSIARNDTVYILGGHSLASNIRPANLYRIRVDLPLGTPAVNCTVLPGGISVSSAILTQTNNDEFVIVGGYQLENQKRMVCSLVSLGDNTIEISEMETPDWTSDIKHSKIWFGSNMGNGTIFLGIPGDNKQAMSEAFYFYTLRCSEEDLSEDQKIVSNSQTSTEDPGDSTPFEDSEEFCFSAEATSFDGDDEFDTYNEDDEDDESVTGYWITCCPTCDVDINTWVPFYSTELNKPAMIYCSHGDGHWVHAQCMDLEERTLIHLSEGSNKYYCNEHVQIARALQAPKRNPPLQKPPMKSLHKKGSGKVLTPAKKS

Data set [1] concerns the molecule itself. As to the kind of experiment: cryo-EM structure.
In data set [2] the target is T1, WT core mouse RAG1 (aa 384-1008) (mouse, UniProt P15919 384-1008).
T1 sequence (looked up): B4 chain
As to the kind of experiment: crystal structure.

Data set [3] has as its target T2, WT core mouse RAG1 (aa 384-1008) (mouse), P15919.
T2 chain: B4 chain
As to the kind of experiment: crystal structure. Conditions: remark: other sources report otherwise.

Data set [4] deals with B1. Kind of data set: cryo-EM structure.

We go through 5 molecules from paper PMC7015813 (Nature structural & molecular biology, 2020).

Positions count from the first letter of the chain named. Names may count otherwise.

B1: the binding result in data set [1] is reported as “binds”.

As to B2, the binding result in data set [1] was “binds”.

Turning to B3, the binding result in data set [2] is “binds”.

Usually stoichiometry N stands for a count of units in the complex or per binding partner. For B4, in data set [3], the stoichiometry N was 2.

For B5, the binding result in data set [4] is on record as “binds”.
